Reference: article PMC12644819 (Nature Communications, 2025)
Ends that are not written are not given here.

T1: LptD (E. coli, UniProt P31554 25-784, disulfide bonds Cys31-Cys724 and Cys173-Cys725)
T1 construct: LptD, E. coli outer membrane LPS transporter, β-taco domain plus 26-stranded β-barrel; called full-length LptD in contrast to the β-barrel truncation; Untagged wild-type LptD; also called full-length LptD; endogenous LptD; source: E. coli BW25113, overproduced from pLptDEM^His or pLptDE^His, or endogenous; DDM-solubilised envelope fraction; co-purified (Ni-NTA, SEC)
T1 sequence (looked up): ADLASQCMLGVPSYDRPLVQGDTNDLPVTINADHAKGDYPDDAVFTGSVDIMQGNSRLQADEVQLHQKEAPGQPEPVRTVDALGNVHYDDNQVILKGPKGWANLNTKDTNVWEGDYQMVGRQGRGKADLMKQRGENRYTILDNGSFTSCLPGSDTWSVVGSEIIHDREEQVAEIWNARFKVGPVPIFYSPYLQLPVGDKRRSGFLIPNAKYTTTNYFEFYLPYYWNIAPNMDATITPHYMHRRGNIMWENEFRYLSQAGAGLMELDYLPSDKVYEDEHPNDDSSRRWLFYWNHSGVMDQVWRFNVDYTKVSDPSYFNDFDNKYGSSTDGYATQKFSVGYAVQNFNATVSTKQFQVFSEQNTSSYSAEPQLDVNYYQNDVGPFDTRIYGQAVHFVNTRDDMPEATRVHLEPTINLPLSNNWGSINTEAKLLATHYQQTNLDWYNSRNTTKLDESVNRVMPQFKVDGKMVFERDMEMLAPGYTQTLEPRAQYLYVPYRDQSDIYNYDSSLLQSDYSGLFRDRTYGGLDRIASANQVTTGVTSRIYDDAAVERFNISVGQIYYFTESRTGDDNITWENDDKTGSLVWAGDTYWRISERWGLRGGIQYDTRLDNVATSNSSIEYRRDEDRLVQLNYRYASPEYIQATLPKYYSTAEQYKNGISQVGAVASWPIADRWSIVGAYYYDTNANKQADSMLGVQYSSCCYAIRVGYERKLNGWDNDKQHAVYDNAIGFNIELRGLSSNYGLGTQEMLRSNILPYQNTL


Assays:
LptD = biological target: T1, LptD; assay: affinity purification with mass spectrometry; nickel-affinity chromatography and gel filtration of LptM^His (wild-type cells) or LptE^His (ΔlptM cells) from DDM-solubilised envelope; SDS-PAGE with Coomassie; ~15 kDa band identified by bottom-up mass spectrometry; settings: partners not purified
LptDEM^His = biological target: T2, LptDEM^His (E. coli, UniProt P31554 25-784; P0ADC1 19-193; P0ADN6 20-67, lipoprotein | lipoprotein); assay: native MS; purified LptDEM^His and LptDE^His complexes; subpopulation with a mass shift of 14,301 Da; re-analysed and new spectra; settings: both partners purified
T2 construct: LptD, E. coli; LptE, E. coli; LptM, E. coli; source: E. coli BW25113 wild type, from pLptDEM^His; purified (Ni-NTA, SEC) in DDM; copies: 1 + 1 + 1
T2 sequence (P0ADC1 19-193, one chain of several): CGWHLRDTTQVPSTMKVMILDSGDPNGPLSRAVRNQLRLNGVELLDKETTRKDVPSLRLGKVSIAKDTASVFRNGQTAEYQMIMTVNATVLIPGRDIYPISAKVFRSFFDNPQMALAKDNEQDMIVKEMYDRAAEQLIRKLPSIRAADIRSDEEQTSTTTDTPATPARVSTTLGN

LptDE^His = biological target: T3, LptDE^His (E. coli, UniProt P31554 25-784; P0ADC1 19-193, lipoprotein); assay: as above; settings: both partners purified
T3 construct: LptD, E. coli; LptE, E. coli; also called core translocon; the translocon; source: E. coli BW25113 (ΔlptM for native MS), from pLptDE^His or derivatives of pLptDME^His; Ni-NTA (and SEC) in DDM; copies: 1 + 1
T3 sequence (P0ADC1 19-193, one chain of several): as above

binding result (LptD)	stoichiometry N (LptDEM^His)	stoichiometry N (LptDE^His)	Binder
binds			CGLKGPLYFPPADKNAPPPTKPVETQTQSTVPDKNDRATGDGPSQVNY (natural protein, E. coli, UniProt P0ADN6 20-67, looked up, also: lipoprotein, acyl tails on N-terminal Cys, His-tagged (LptM^His), LptM, E. coli lipoprotein; source: E. coli BW25113, from pLptDEM^His or pLptD^β-barrelEM^His; DDM-solubilised envelope fraction; purified (Ni-NTA, SEC)) [LptM^His]
	1 LptD:LptE:LptM:LptY	1 LptD:LptE:LptY	LptY (natural protein, E. coli, UniProt P31063 16-137, looked up, lipoprotein, LptY (formerly YedD), E. coli OM lipoprotein of ~14 kDa; an AlphaFold2 model was docked; also called YedD; source: endogenous, E. coli BW25113; co-purified with LptDEM^His or LptDE^His (Ni-NTA, SEC)) CAEVENYNNVVKTPAPDWLAGYWQTKGPQRALVSPEAIGSLIVTKEGDTLDCRQWQRVIAVPGKLTLMSDDLTNVTVKRELYEVERDGNTIEYDGMTMERVDRPTAECAAALDKAPLPTPLP
